In patent publication US20230272048A1:

Columns and labels:
Assay in all cases: capture ELISA on Env of lysed AD8 pseudovirus, % of WT
E87A (HIV-1) = target: E87A (HIV-1)
K121A (HIV-1) = target: K121A (HIV-1)
[1] = target: AD8 Env I371A (HIV-1 AD8, clade B)
N276A (HIV-1) = target: N276A (HIV-1)
N262A (HIV-1) = target: N262A (HIV-1)
D185A (HIV-1) = target: D185A (HIV-1)
[2] = target: AD8 Env T455A (HIV-1 AD8, clade B)
S365A (HIV-1) = target: S365A (HIV-1)
A329K (HIV-1) = target: A329K (HIV-1)
[3] = target: AD8 Env D457A (HIV-1 AD8, clade B)
[4] = target: AD8 Env D279A (HIV-1 AD8, clade B)
[5] = target: AD8 Env G473A (HIV-1 AD8, clade B)
[6] = target: AD8 Env E370A (HIV-1 AD8, clade B)
[7] = target: AD8 Env G367A (HIV-1 AD8, clade B)
N197A (HIV-1) = target: N197A (HIV-1)
M475A (HIV-1) = target: M475A (HIV-1)
[8] = target: AD8 Env G366A (HIV-1 AD8, clade B)
Q363A (HIV-1) = target: Q363A (HIV-1)
R476A (HIV-1) = target: R476A (HIV-1)
K282A (HIV-1) = target: K282A (HIV-1)
N283A (HIV-1) = target: N283A (HIV-1)
L179A (HIV-1) = target: L179A (HIV-1)
[9] = target: AD8 Env G471A (HIV-1 AD8, clade B)
G472A (HIV-1) = target: G472A (HIV-1)
R419A (HIV-1) = target: R419A (HIV-1)
P369A (HIV-1) = target: P369A (HIV-1)
[10] = target: AD8 Env N332T (HIV-1 AD8, clade B)
S364A (HIV-1) = target: S364A (HIV-1)
[11] = target: AD8 Env D474A (HIV-1 AD8, clade B)
[12] = target: AD8 Env D368A (HIV-1 AD8, clade B)
M373A (HIV-1) = target: M373A (HIV-1)
P313A (HIV-1) = target: P313A (HIV-1)
[13] = target: AD8 Env V372A (HIV-1 AD8, clade B)

Substance | Env binding (%) at antibody EC50 (E87A (HIV-1)) [%] | Env binding (%) at antibody EC50 (K121A (HIV-1)) [%] | Env binding (%) at antibody EC50 [1] [%] | Env binding (%) at antibody EC50 (N276A (HIV-1)) [%] | Env binding (%) at antibody EC50 (N262A (HIV-1)) [%] | Env binding (%) at antibody EC50 (D185A (HIV-1)) [%] | Env binding (%) at antibody EC50 [2] [%] | Env binding (%) at antibody EC50 (S365A (HIV-1)) [%] | Env binding (%) at antibody EC50 (A329K (HIV-1)) [%] | Env binding (%) at antibody EC50 [3] [%] | Env binding (%) at antibody EC50 [4] [%] | Env binding (%) at antibody EC50 [5] [%] | Env binding (%) at antibody EC50 [6] [%] | Env binding (%) at antibody EC50 (N197A (HIV-1)) [%] | Env binding (%) at antibody EC50 (M475A (HIV-1)) [%] | Env binding (%) at antibody EC50 [8] [%] | Env binding (%) at antibody EC50 (Q363A (HIV-1)) [%] | Env binding (%) at antibody EC50 (R476A (HIV-1)) [%] | Env binding (%) at antibody EC50 (K282A (HIV-1)) [%] | Env binding (%) at antibody EC50 (N283A (HIV-1)) [%] | also measured
b12 (antibody) | 99 | 95 | 73 | 86 | 52 | 63 | 114 | 64 | 51 | 57 | 86 | 96 | 54 | 69 | 103 | 47 | 77 | 79 | 96 | 98 | Env binding (%) at antibody EC50 [7]: 68%; Env binding (%) at antibody EC50 (L179A (HIV-1)): 41%; Env binding (%) at antibody EC50 [9]: 88%; Env binding (%) at antibody EC50 (G472A (HIV-1)): 93%; Env binding (%) at antibody EC50 (R419A (HIV-1)): 74%; Env binding (%) at antibody EC50 (P369A (HIV-1)): 90%; Env binding (%) at antibody EC50 [10]: 66%; Env binding (%) at antibody EC50 (S364A (HIV-1)): 110%; Env binding (%) at antibody EC50 [11]: 70%; Env binding (%) at antibody EC50 [12]: 21%; Env binding (%) at antibody EC50 (M373A (HIV-1)): 111%; Env binding (%) at antibody EC50 (P313A (HIV-1)): 95%
PGT121 (antibody) | 73 | 84 | 80 | 97 | 75 | 81 | 92 | 96 | 53 | 108 | 103 | 80 | 74 | 65 | 84 | 80 | 72 | 73 | 78 | 75 | Env binding (%) at antibody EC50 (L179A (HIV-1)): 87%; Env binding (%) at antibody EC50 [9]: 75%; Env binding (%) at antibody EC50 [13]: 83%; Env binding (%) at antibody EC50 (G472A (HIV-1)): 78%; Env binding (%) at antibody EC50 (R419A (HIV-1)): 82%; Env binding (%) at antibody EC50 (P369A (HIV-1)): 74%; Env binding (%) at antibody EC50 [10]: 8%; Env binding (%) at antibody EC50 (S364A (HIV-1)): 82%; Env binding (%) at antibody EC50 [11]: 81%; Env binding (%) at antibody EC50 [12]: 79%; Env binding (%) at antibody EC50 (M373A (HIV-1)): 90%
